# B1: IsiA protein of Synechocystis sp. PCC 6803 (natural protein)
# chain: not shown
# Target: the molecule itself
# Assay: negative stain TEM
protein,measurement,value
B1,stoichiometry N,18

# Source: paper PMC6699766 (Nature plants, 2019)
